Assay results: article PMC2850121 (Structure (London, England : 1993), 2010)
Where two headings read alike, the source gives them in different places.

Experiments:
[1] = target: C-terminally biotinylated IL-13Rα1 (UniProt P78552); assay: SPR
[2] = target: C-terminally biotinylated IL-13Rα2 (human) (UniProt Q14627); assay: SPR
[3] = target: T1, Human IL-13 (amino acids 21–132), wild type, fully glycosylated (human, UniProt P35225 35-146, fully glycosylated); assay: ITC
[4] = target: T1, Human IL-13 (amino acids 21–132), wild …; assay: ITC; remark: listed apart in the source
IL-13 K104A (human) = assay: ITC
IL-13 F107A (human) = assay: ITC

Row | Molecule | koff [1] [s⁻¹] | kon [1] [M⁻¹ s⁻¹] | koff [2] [s⁻¹] | kon [2] [M⁻¹ s⁻¹] | other results
1 | IL-13 D87A (ligand) | 0.00751 | 2.74e+06 |  |  | 
2 | IL-13 K104A (ligand) |  |  | 0.00271 | 9.64e+06 | 
3 | IL-13 T88A (ligand) | 0.00488 |  |  |  | 
4 | IL-13Rα2 ectodomain (amino acids 29–331) (receptor, human, UniProt Q14627 29-331, looked up, fully glycosylated) EIKVNPPQDFEIVDPGYLGYLYLQWQPPLSLDHFKECTVEYELKYRNIGSETWKTIITKNLHYKDGFDLNKGIEAKIHTLLPWQCTNGSEVQSSWAETTYWISPQGIPETKVQDMDCVYYNWQYLLCSWKPGIGVLLDTNYNLFYWYEGLDHALQCVDYIKADGQNIGCRFPYLEASDYKDFYICVNGSSENKPIRSSYFTFQLQNIVKPLPPVYLTFTRESSCEIKLKWSIPLGPIPARCFDYEIEIREDDTTLVTATVENETYTLKTTNETRQLCFVVRSKVNIYCSDDGIWSEWSDKQCW |  |  |  |  | dH [3]: -20.1 kcal/mol; stoichiometry N [3]: 0.943; dH [4]: -20 kcal/mol; stoichiometry N [4]: 0.98; dH (IL-13 K104A (human)): -20.4 kcal/mol; stoichiometry N (IL-13 K104A (human)): 0.884; dH (IL-13 F107A (human)): -17.1 kcal/mol; stoichiometry N (IL-13 F107A (human)): 0.949
5 | IL-13Rα1 soluble extracellular domain (receptor, UniProt P78552 22-343, looked up, fully glycosylated) GGGGAAPTETQPPVTNLSVSVENLCTVIWTWNPPEGASSNCSLWYFSHFGDKQDKKIAPETRRSIEVPLNERICLQVGSQCSTNESEKPSILVEKCISPPEGDPESAVTELQCIWHNLSYMKCSWLPGRNTSPDTNYTLYYWHRSLEKIHQCENIFREGQYFGCSFDLTKVKDSSFEQHSVQIMVKDNAGKIKPSFNIVPLTSRVKPDPPHIKNLSFHNDDLYVQWENPQNFISRCLFYEVEVNNSQTETHNVFYVQEAKCENPEFERNVENTSCFMVPGVLPDTLNTVRIRVKTNKLCYEDDKLWSNWSQEMSIGKKRNST |  |  |  |  | dH [4]: -11.4 kcal/mol; stoichiometry N [4]: 0.937

More lines, main results first:

Row | koff [1] [s⁻¹] | kon [1] [M⁻¹ s⁻¹] | koff [2] [s⁻¹] | kon [2] [M⁻¹ s⁻¹] | Molecule | other results
6 | 0.00445 | 2.82e+06 |  |  | IL-13 E15A (ligand) | 
7 |  |  | 0.000945 | 1.15e+07 | IL-13 F107A (ligand) | 
8 |  |  | 0.000152 | 1.79e+07 | IL-13 I14A (ligand) | 
9 | 0.00771 | 1.31e+06 | 1.06e-05 | 9.16e+06 | IL-13 K105A (ligand) | 
10 | 0.00463 | 3.53e+06 |  |  | IL-13 L101A (ligand) | 
11 | 0.00487 | 1.87e+06 |  |  | IL-13 R11A (ligand) | 
12 | 0.00443 | 3.26e+06 |  |  | IL-13 V18A (ligand) | 
